Among the data in publication PMC10404610 (Biochemistry and Biophysics Reports, 2023) are Kd values, retold here.

No end group written: not given here.

Assay [1] concerns the target CCL21 (UniProt O00585). Briefly: NMR titration.
Assay [2] addresses T1, CCL21 (Homo sapiens, UniProt O00585).
T1 sequence (O00585 24-134): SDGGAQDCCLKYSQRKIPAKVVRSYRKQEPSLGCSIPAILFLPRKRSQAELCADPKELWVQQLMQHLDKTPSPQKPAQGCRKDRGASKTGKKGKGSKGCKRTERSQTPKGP
Briefly: 2D 15N-1H HSQC NMR titration of [U-15N] CCL21 with PSGL1 1–15 peptide. Type of assay: binding.

The Kd is a measure of binding affinity in units of concentration. High values mean lower affinity, low ones higher affinity. Consider PSGL1 residues 1-15 peptide, for which the Kd in the assay with CCL21 [1] worked out at 300 µM. QTAEYEYLDYDFLPE [PSGL1 peptide] gave a Kd at CCL21 [2] of 300 ± 100 µM.
